The text below walks through data of patent publication US11505576B2, “Polypeptides based on a scaffold” (AFFIBODY AB, priority 2018, dated 2022).

The target in one data set is T1, insulin (Homo sapiens, UniProt P01308).
T1 construct: purchased Roche 1376497
In words: Kinetic analysis using surface plasmon resonance (Biacore T200), immobilized insulin. The data set is classed as binding. As to conditions: MGSSHHHHHHGSS-[Y#####]-A. The protocol:
Kinetic constants (ka and kd) and affinities (KD) were determined for His6-tagged Y variants using a Biacore T200 instrument (GE Healthcare). Target proteins C4, IL-6 and insulin, respectively, were immobilized in separate flow cells on the carboxylated dextran layer of different CM5 chip surfaces (GE Healthcare). Immobilization was performed using amine coupling chemistry according to the manufacturer's protocol and PBS pH 7.4 supplemented with 0.1 Tween20 (PBST 0.1%) as running buffer. The ligand immobilization levels on the surfaces were 3280-8830 RU for C4, 495-1184 RU for IL-6, and 270-282 RU for insulin. One flow cell surface on each chip was activated and deactivated for use as blank during analyte injections. In the kinetic experiment, PBST 0.1% was used as running buffer at a flow rate of 30 μl/min. The analytes, i.e. Y variants, were each diluted in PBST 0.1 buffer at concentrations of 1000, 500, 100, 50 and 10 nM and injected for 5 min, followed by dissociation in running buffer for 3 min. After dissociation, the surfaces were regenerated with one injection of 30 μl 10 mM HCl. Kinetic constants were calculated from the sensorgrams using the Langmuir 1:1 model of Biacore T200 Evaluation software 2.0 (GE Healthcare).
(§1) Produced Y variants were subjected to CD and SPR analyses according to the methods described in Example 1.
(§2) The Y variants were cloned, produced and characterized according to the general methods described in Example 1. Produced Y variants with point mutations and/or N-terminal or C-terminal extensions were subjected to CD and SPR analyses as described in Example 1.
(§3) Produced Y variants were subjected to CD and SPR analyses according to the methods described in Example 1. In addition, CD spectra of selected IL-6 binding variants were also recorded at 60, 70, 80 and 90° C.
(§4) The Y variants were cloned, produced and characterized according to the general methods described in Example 1. Produced Y variants with point mutations were subjected to CD and SPR analyses as described in Example 1. In addition, CD spectra of the IL-6 binding variants were also recorded at 60, 70, 80 and 90° C.
A general note: In SPR one partner is held on a chip, and binding of the other changes the refractive index at the surface.

A short description of data set [1]: Circular dichroism spectroscopy analysis (CD spectra, variable temperature measurement, refolding). As to conditions: MGSSHHHHHHGSS-[Y#####]-A. It counts as physicochemical. The protocol:
The respective Y variant was diluted to 0.5 mg/ml in PBS. A CD spectrum at 250-195 nm was obtained at 20° C. In addition, a variable temperature measurement (VTM) was performed to determine the melting temperature (Tm). In the VTM, absorbance was measured at 221 nm while the temperature was raised from 20° C. to 90° C. with a temperature gradient of 5° C./min. A new CD spectrum was obtained at 20° C. after the heating procedure, in order to study the refolding ability of the Y variants. The CD measurements were performed on a Jasco J-810 spectropolarimeter (Jasco Scandinavia AB) using a cell with an optical path length of 1 mm.
as §1, §2, §3, §4
A general note: Circular dichroism is widely used to follow secondary structure.

Data set [2] is described as follows: Fraction of soluble product on expression in E. coli, estimated from SDS-PAGE. It counts as physicochemical. Particulars: MGSSHHHHHHGSS-[Y#####]-A; for Estimated soluble fraction: Table 7, Ylib002Naive.I selection; for Est soluble fraction: Table 9, mutation study 5. The protocol: E. coli T7E2 cells were transformed with plasmids containing the gene fragment of each respective Y variant. The resulting recombinant strains were generally cultivated in media supplemented with 50 μg/ml kanamycin at 30-37° C. in 50 ml scale using the EnPresso protocol (Enpresso GmbH). In order to induce protein expression, isopropyl-β-D-1-thiogalactopyranoside (IPTG) was added to a final concentration of 0.5 mM at an optical density at 600 nm (OD600) of approximately 10. After induction, the cultures were incubated for 16 h. The cells were harvested by centrifugation. Alternatively, the culture was performed at 37° C. in 980 ml of TSB-YE medium (tryptic soy broth 30 g/l supplemented with yeast extract 5 g/l) supplemented with 50 μg/ml kanamycin, and protein expression induced with 0.2 mM IPTG at OD600=2, followed by incubation for 5 h before harvesting of the cells by centrifugation. The total yield as well as the fraction of soluble and insoluble product of the respective Y variant was estimated based on SDS-PAGE analysis.

T1 sequence (P01308 25-54 limits assumed): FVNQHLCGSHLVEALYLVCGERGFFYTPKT
T1 sequence (P01308 90-110 limits assumed): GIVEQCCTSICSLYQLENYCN

A word on the Kd: it is the concentration at which binding is half-saturated. The low end stands for higher affinity, the high end for lower affinity. In the data set with insulin (Table 7), “Y00301: insulin binding Y variant from Ylib002Naive.I, SEQ ID NO:133 (LAEAKEAAIAELDSKGVGARQIKWIQQAKSVEVVQWLKQAILADLPA; Engineered insulin binding Y variant)” gave a Kd of 0.94 nM, a ka of 2.9e+07 M⁻¹ s⁻¹ and a kd of 0.056 s⁻¹. Besides, the Tm in data set [1] (Table 7) worked out at 62 °C. Besides, the Estimated soluble fraction in data set [2] was 83%.

In the data set with insulin (Table 7), “Y00304: insulin binding Y variant from Ylib002Naive.I, SEQ ID NO:134 (LAEAKEAAIAELDSKGVGAYQIKFIQVAHDVEEVQILKQAILADLPA; Engineered insulin binding Y variant)” came in with a Kd of 21 nM, a ka of 85000 M⁻¹ s⁻¹ and a kd of 0.0011 s⁻¹. Further, the Tm in data set [1] (Table 7) came out at 41 °C. For the same substance, the Estimated soluble fraction in data set [2] is recorded as 33%.

In the data set with insulin (Table 7), “Y00310: insulin binding Y variant from Ylib002Naive.I, SEQ ID NO:135 (LAEAKEAAIAELDSKGVGAYQIKFIQIAHTVEEVQLMKQAILADLPA; Engineered insulin binding Y variant)” registered a Kd of 37 nM, a ka of 170000 M⁻¹ s⁻¹ and a kd of 0.0063 s⁻¹. For the same substance, the Tm in data set [1] (Table 7) is 54 °C. The Estimated soluble fraction in data set [2] is reported as 86%.

In the data set with insulin (Table 7), “Y00330: insulin binding Y variant from Ylib002Naive.I, SEQ ID NO:136 (LAEAKEAAIAELDSKGVGAKYIKMIQMAKHVETVQYMKQAILASLPA; Engineered insulin binding Y variant)” showed a Kd of 120 nM, a ka of 30000 M⁻¹ s⁻¹ and a kd of 0.0037 s⁻¹. The Tm in data set [1] (Table 7) stood at 56 °C. Also, the Estimated soluble fraction in data set [2] is given as 67%.

In the data set with insulin (Table 7), “Y00345: insulin binding Y variant from Ylib002Naive.I, SEQ ID NO:138 (LAEAKEAAIAELDSKGVGAYQIKFIQVAKTVEAVQAIKQAILADLPA; Engineered insulin binding Y variant)” showed a Kd of 61 nM, a ka of 290000 M⁻¹ s⁻¹ and a kd of 0.017 s⁻¹. In data set [1] (Table 7), the Tm came to 53 °C. In addition, the Estimated soluble fraction in data set [2] is given as 80%.

As to “Y00356a: insulin binding Y variant from Ylib002Naive.I, SEQ ID NO:141 (LAEAKEAAIAELDSKGVGAKYIKMIQHAHYVEVVQWLKQAILAHLPA; Engineered insulin binding Y variant)”, in the data set with insulin (Table 7), the Kd turned out to be 0.17 nM, the ka is 3.4e+07 M⁻¹ s⁻¹ and the kd was 0.0061 s⁻¹. In addition, the Tm in data set [1] (Table 7) stood at 56 °C. Further, the Estimated soluble fraction in data set [2] is given as 60%.

“Y00358: insulin binding Y variant from Ylib002Naive.I, SEQ ID NO:142 (LAEAKEAAIAELDSKGVGAAKIKWIQDAKSVETVQFLKQAILAELPA; Engineered insulin binding Y variant)”: in the data set with insulin (Table 7), binding was characterised by a dissociation constant (Kd) of 10 nM, the ka was found to be 220000 M⁻¹ s⁻¹ and the kd worked out at 0.0023 s⁻¹. Also, the Tm in data set [1] (Table 7) is 61 °C. In addition, in data set [2], the Estimated soluble fraction is 97%.

With “Y00361: insulin binding Y variant from Ylib002Naive.I, SEQ ID NO:144 (LAEAKEAAIAELDSKGVGAKFIKMIQSAKLVETVQLLKQAILADLPA; Engineered insulin binding Y variant)”, in the data set with insulin (Table 7), the Kd was determined as 310 nM, the ka is 12000 M⁻¹ s⁻¹ and the kd worked out at 0.0036 s⁻¹. Moreover, the Tm in data set [1] (Table 7) was 52 °C. In data set [2], the Estimated soluble fraction is listed as 100%.

Take “Y02709: insulin binding Y variant, Y00358 with I9L, SEQ ID NO:149 (LAEAKEAALAELDSKGVGAAKIKWIQDAKSVETVQFLKQAILAELPA; Engineered insulin binding Y variant)”: in the data set with insulin (Table 9, mutation study 5), the Kd came to 380 nM, the ka was 27000 M⁻¹ s⁻¹ and the kd is 0.01 s⁻¹. Moreover, the Tm in data set [1] (Table 9, mutation study 5) turned out to be 54 °C. Besides, the Est soluble fraction in data set [2] was 100%.

For “Y02710: insulin binding Y variant, Y00358 with K15Y, SEQ ID NO:150 (LAEAKEAAIAELDSYGVGAAKIKWIQDAKSVETVQFLKQAILAELPA; Engineered insulin binding Y variant)”, in the data set with insulin (Table 9, mutation study 5), binding was characterised by a dissociation constant (Kd) of 14 nM, the ka was found to be 190000 M⁻¹ s⁻¹ and the kd stood at 0.0027 s⁻¹. In addition, the Tm in data set [1] (Table 9, mutation study 5) is 61 °C. For the same substance, the Est soluble fraction in data set [2] is reported as 100%.

Turning to “Y02711: insulin binding Y variant, Y00358 with Q26E, SEQ ID NO:151 (LAEAKEAAIAELDSKGVGAAKIKWIEDAKSVETVQFLKQAILAELPA; Engineered insulin binding Y variant)”, in the data set with insulin (Table 9, mutation study 5), binding was put at a Kd of 54 nM, the ka is 1500 M⁻¹ s⁻¹ and the kd came out at 0.008 s⁻¹. The Tm in data set [1] (Table 9, mutation study 5) was 62 °C. For the same substance, the Est soluble fraction in data set [2] was 100%.

Take “Y02713: insulin binding Y variant, Y00310 with K15Y, SEQ ID NO:153 (LAEAKEAAIAELDSYGVGAYQIKFIQIAHTVEEVQLMKQAILADLPA; Engineered insulin binding Y variant)”: in the data set with insulin (Table 9, mutation study 5), the affinity, expressed as Kd, was 190 nM; the ka was found to be 110000 M⁻¹ s⁻¹; the kd came to 0.014 s⁻¹. In addition, in data set [1] (Table 9, mutation study 5), the Tm was 51 °C. Further, in data set [2], the Est soluble fraction is on record as 100%.

For “Y02714: insulin binding Y variant, Y00310 with Q26E, SEQ ID NO:154 (LAEAKEAAIAELDSKGVGAYQIKFIEIAHTVEEVQLMKQAILADLPA; Engineered insulin binding Y variant)”, in the data set with insulin (Table 9, mutation study 5), binding was put at a Kd of 540 nM, the ka stood at 290000 M⁻¹ s⁻¹ and the kd stood at 0.16 s⁻¹. The Tm in data set [1] (Table 9, mutation study 5) turned out to be 53 °C. Further, the Est soluble fraction in data set [2] was 100%.

In the data set with insulin (Table 9, mutation study 5), “Y02715: insulin binding Y variant, Y00358 with K15Y Q26E, SEQ ID NO:155 (LAEAKEAAIAELDSYGVGAAKIKWIEDAKSVETVQFLKQAILAELPA; Engineered insulin binding Y variant)” displayed an equilibrium dissociation constant (Kd) of 280 nM, a ka of 6700 M⁻¹ s⁻¹ and a kd of 0.0019 s⁻¹. For the same substance, in data set [1] (Table 9, mutation study 5), the Tm came to 61 °C. Further, the Est soluble fraction in data set [2] is given as 100%.

On to “Y02716: insulin binding Y variant, Y00301 with K15Y Q26E, SEQ ID NO:156 (LAEAKEAAIAELDSYGVGARQIKWIEQAKSVEVVQWLKQAILADLPA; Engineered insulin binding Y variant)”, for which, in the data set with insulin (Table 9, mutation study 5), the affinity, expressed as Kd, was 7.6 nM; the ka is 2.7e+07 M⁻¹ s⁻¹; the kd was determined as 0.21 s⁻¹. Moreover, the Tm in data set [1] (Table 9, mutation study 5) turned out to be 58 °C. For the same substance, the Est soluble fraction in data set [2] is given as 100%.

In the data set with insulin (Table 9, mutation study 5), “Y02717: insulin binding Y variant, Y00310 with K15Y Q26E, SEQ ID NO:157 (LAEAKEAAIAELDSYGVGAYQIKFIEIAHTVEEVQLMKQAILADLPA; Engineered insulin binding Y variant)” registered a Kd of 610 nM, a ka of 33000 M⁻¹ s⁻¹ and a kd of 0.02 s⁻¹. Besides, in data set [1] (Table 9, mutation study 5), the Tm stood at 52 °C. The Est soluble fraction in data set [2] is recorded as 100%.
